Here are results for one substance from patent US20120156175A1.

This assay has as its target integrin alpha V beta 5 (human) (UniProt P06756). Put plainly: cell-based or functional assay.
UniProt P06756, sequence (P06756 31-1048, chain 1 of 2): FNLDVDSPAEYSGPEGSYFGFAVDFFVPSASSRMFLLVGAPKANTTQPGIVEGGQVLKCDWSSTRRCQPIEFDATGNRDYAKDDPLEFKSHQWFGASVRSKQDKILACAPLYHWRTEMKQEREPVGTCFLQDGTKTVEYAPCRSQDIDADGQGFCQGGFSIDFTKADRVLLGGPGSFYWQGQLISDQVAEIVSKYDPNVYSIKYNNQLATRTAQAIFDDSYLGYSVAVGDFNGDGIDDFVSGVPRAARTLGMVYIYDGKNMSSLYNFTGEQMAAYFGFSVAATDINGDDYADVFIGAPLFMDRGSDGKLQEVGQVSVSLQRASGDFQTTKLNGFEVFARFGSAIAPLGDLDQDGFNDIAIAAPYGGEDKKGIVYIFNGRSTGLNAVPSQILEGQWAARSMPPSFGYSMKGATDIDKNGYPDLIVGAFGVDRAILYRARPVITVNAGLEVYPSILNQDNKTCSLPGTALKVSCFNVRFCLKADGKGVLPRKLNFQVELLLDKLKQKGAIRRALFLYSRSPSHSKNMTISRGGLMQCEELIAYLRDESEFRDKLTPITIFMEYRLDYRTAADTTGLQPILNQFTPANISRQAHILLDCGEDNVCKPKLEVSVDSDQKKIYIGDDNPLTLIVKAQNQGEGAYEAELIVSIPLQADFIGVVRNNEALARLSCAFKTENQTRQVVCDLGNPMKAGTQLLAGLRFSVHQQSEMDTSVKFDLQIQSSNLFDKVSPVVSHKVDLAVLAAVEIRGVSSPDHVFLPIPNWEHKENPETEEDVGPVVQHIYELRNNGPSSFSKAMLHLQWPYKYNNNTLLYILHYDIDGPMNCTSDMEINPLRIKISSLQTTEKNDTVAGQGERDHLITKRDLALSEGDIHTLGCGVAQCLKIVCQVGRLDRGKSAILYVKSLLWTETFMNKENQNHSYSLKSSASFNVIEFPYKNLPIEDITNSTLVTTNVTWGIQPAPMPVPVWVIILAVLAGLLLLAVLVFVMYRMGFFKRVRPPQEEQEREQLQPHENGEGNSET
UniProt P06756, sequence (P18084 24-799, chain 2 of 2, further chain): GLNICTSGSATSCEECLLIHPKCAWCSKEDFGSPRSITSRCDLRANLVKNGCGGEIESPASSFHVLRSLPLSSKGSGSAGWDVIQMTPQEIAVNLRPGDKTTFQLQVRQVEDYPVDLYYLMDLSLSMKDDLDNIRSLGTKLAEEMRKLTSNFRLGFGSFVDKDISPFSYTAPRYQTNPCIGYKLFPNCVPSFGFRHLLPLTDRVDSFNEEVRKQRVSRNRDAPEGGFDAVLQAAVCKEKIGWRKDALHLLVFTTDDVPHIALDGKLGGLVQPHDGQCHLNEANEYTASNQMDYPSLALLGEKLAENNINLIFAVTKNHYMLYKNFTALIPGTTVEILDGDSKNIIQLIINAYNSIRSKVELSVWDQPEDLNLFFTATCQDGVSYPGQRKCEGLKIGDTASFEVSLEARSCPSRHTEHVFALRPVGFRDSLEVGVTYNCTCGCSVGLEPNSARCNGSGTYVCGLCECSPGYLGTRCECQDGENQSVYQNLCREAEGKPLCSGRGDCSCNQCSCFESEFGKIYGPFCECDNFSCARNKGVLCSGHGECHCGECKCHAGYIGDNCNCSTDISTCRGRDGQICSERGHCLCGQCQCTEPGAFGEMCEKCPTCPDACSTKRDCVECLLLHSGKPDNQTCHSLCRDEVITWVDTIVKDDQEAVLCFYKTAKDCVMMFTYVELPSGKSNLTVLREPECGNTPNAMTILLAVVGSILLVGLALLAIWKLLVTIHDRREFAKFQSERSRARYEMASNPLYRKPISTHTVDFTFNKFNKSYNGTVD

Regarding “periostin (from UniProt Q15063 22-779) (ligand)”, the ability to induce the migration of neural stem cells (Boyden chamber assay, HB1.F3 cells, against cells not treated with periostin) came out at 100%.
